T1: human S100A8/A9 heterodimeric antigen, His-tagged (hS100A8/A9-His) (human, UniProt P05109 1-93; P06702 1-114)
T1 sequence 1: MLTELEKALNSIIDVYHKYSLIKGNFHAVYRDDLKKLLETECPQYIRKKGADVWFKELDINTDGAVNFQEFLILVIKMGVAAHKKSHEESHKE
T1 sequence 2: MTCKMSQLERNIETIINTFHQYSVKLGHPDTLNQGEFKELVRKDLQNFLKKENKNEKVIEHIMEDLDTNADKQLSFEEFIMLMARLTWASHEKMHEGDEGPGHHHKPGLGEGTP

B1: CM-50 (antibody, human IgG4 S228P, lambda, V domains shown)
VH: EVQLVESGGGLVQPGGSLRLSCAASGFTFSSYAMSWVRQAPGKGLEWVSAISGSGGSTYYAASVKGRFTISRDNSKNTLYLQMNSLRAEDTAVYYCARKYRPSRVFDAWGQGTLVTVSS
VL: SYELTQPPSVSVAPGQTARITCSGDALGDKYASWYQQKPGQAPVLVIYEDAKRPSGIPERFSGSNSGNTATLTISGTQAEDEADYYCQSNDADAVWVFGGGTKLTVLG
B2: CM-40 (antibody, human IgG4 S228P, lambda, V domains shown)
VH: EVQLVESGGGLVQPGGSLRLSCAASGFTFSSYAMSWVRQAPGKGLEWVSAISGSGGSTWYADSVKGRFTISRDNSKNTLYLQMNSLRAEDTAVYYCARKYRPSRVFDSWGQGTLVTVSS
VL: SYELTQPPSVSVAPGQTARITCSGDALGDKYASWYQQKPGQAPVLVIYEDSKRPSGIPERFSGSNSGNTATLTISGTQAEDEADYYCQSNDVDSVWVFGGGTKLTVLG
B3: CM-41 (antibody, human IgG4 S228P, lambda, V domains shown)
VH: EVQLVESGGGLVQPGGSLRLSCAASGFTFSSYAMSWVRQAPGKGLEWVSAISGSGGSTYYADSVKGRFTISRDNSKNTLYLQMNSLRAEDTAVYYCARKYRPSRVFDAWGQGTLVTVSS
VL: SYELTQPPSVSVAPGQTARITCSGDALGDKYASWYQQKPGQAPVLVIYEDSKRPSGIPERFSGSNSGNTATLTISGTQAEDEADYYCQSNDADAVWVFGGGTKLTVLG
B4: CM-42 (antibody, human IgG4 S228P, lambda, V domains shown)
VH: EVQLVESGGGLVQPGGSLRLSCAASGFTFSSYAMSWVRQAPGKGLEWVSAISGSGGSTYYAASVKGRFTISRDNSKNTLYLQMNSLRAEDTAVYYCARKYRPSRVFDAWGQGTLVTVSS
VL: SYELTQPPSVSVAPGQTARITCSGDALGDKYASWYQQKPGQAPVLVIYEDSKRPSGIPERFSGSNSGNTATLTISGTQAEDEADYYCQSNDIDSVWVFGGGTKLTVLG
B5: CM-43 (antibody, human IgG4 S228P, lambda, V domains shown)
VH: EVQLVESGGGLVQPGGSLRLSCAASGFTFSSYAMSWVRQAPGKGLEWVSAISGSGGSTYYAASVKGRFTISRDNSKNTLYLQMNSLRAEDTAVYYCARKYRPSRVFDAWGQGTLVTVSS
VL: SYELTQPPSVSVAPGQTARITCSGDALGDKYASWYQQKPGQAPVLVIYEDAKRPSGIPERFSGSNSGNTATLTISGTQAEDEADYYCQSNDADSVWVFGGGTKLTVLG
B6: CM-44 (antibody, human IgG4 S228P, lambda, V domains shown)
VH: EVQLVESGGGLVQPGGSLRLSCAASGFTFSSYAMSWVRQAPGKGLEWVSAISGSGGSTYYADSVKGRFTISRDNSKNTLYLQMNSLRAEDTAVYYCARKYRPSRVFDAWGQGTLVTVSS
VL: SYELTQPPSVSVAPGQTARITCSGDALGDKYASWYQQKPGQAPVLVIYEDAKRPSGIPERFSGSNSGNTATLTISGTQAEDEADYYCQSNDADAVWVFGGGTKLTVLG
B7: CM-45 (antibody, human IgG4 S228P, lambda, V domains shown)
VH: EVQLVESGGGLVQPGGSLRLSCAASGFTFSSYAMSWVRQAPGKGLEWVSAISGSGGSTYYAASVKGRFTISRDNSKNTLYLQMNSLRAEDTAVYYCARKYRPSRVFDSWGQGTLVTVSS
VL: SYELTQPPSVSVAPGQTARITCSGDALGDKYASWYQQKPGQAPVLVIYEDAKRPSGIPERFSGSNSGNTATLTISGTQAEDEADYYCQSNDADAVWVFGGGTKLTVLG
B8: CM-46 (antibody, human IgG4 S228P, lambda, V domains shown)
VH: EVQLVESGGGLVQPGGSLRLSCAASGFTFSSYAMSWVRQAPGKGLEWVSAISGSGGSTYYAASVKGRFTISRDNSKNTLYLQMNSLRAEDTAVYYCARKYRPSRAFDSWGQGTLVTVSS
VL: SYELTQPPSVSVAPGQTARITCSGDALGDKFASWYQQKPGQAPVLVIYEDSKRPSGIPERFSGSNSGNTATLTISGTQAEDEADYYCQSNDADSVWVFGGGTKLTVLG
B9: CM-47 (antibody, human IgG4 S228P, lambda, V domains shown)
VH: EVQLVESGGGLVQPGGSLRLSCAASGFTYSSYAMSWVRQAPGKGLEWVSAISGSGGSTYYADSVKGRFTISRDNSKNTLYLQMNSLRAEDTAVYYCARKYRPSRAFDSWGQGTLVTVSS
VL: SYELTQPPSVSVAPGQTARITCSGDALGDKYASWYQQKPGQAPVLVIYEDSKRPSGIPERFSGSNSGNTATLTISGTQAEDEADYYCQSNDIDSVWVFGGGTKLTVLG
B10: CM-48 (antibody, human IgG4 S228P, lambda, V domains shown)
VH: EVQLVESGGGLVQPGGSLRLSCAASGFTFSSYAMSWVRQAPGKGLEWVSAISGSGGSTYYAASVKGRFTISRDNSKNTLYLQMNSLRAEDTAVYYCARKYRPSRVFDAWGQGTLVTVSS
VL: SYELTQPPSVSVAPGQTARITCSGDALGDKFASWYQQKPGQAPVLVIYEDSKRPSGIPERFSGSNSGNTATLTISGTQAEDEADYYCQSNDIDSVWVFGGGTKLTVLG
B11: CM-49 (antibody, human IgG4 S228P, lambda, V domains shown)
VH: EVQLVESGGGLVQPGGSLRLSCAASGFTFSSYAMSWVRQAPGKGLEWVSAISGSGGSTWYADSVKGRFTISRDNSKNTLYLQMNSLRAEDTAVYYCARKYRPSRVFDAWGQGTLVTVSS
VL: SYELTQPPSVSVAPGQTARITCSGDALGDKYASWYQQKPGQAPVLVIYEDAKRPSGIPERFSGSNSGNTATLTISGTQAEDEADYYCQSNDIDSVWVFGGGTKLTVLG
B12: CM-52 (antibody, human IgG4 S228P, lambda, V domains shown)
VH: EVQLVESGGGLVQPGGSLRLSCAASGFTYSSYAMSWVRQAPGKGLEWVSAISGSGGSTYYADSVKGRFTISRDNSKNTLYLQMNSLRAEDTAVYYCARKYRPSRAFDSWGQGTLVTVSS
VL: SYELTQPPSVSVAPGQTARITCSGDALGDKYASWYQQKPGQAPVLVIYEDAKRPSGIPERFSGSNSGNTATLTISGTQAEDEADYYCQSNDIDSVWVFGGGTKLTVLG
B13: CM-53 (antibody, human IgG4 S228P, lambda, V domains shown)
VH: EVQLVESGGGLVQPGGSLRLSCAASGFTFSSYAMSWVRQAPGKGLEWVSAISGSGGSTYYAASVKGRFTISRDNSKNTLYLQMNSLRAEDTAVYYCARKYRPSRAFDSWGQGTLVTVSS
VL: SYELTQPPSVSVAPGQTARITCSGDALGDKYASWYQQKPGQAPVLVIYEDAKRPSGIPERFSGSNSGNTATLTISGTQAEDEADYYCQSNDADAVWVFGGGTKLTVLG
B14: CM-54 (antibody, human IgG4 S228P, lambda, V domains shown)
VH: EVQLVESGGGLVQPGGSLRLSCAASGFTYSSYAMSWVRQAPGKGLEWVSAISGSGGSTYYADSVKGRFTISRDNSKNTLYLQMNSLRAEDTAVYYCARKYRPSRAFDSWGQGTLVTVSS
VL: SYELTQPPSVSVAPGQTARITCSGDALGDKFASWYQQKPGQAPVLVIYEDSKRPSGIPERFSGSNSGNTATLTISGTQAEDEADYYCQSNDIDSVWVFGGGTKLTVLG
B15: CM-55 (antibody, human IgG4 S228P, lambda, V domains shown)
VH: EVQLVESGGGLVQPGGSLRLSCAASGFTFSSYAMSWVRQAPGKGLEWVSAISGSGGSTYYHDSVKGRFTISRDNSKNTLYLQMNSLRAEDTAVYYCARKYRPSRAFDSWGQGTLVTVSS
VL: SYELTQPPSVSVAPGQTARITCSGDALGDKFASWYQQKPGQAPVLVIYEDSKRPSGIPERFSGSNSGNTATLTISGTQAEDEADYYCQSNDADAVWVFGGGTKLTVLG
B16: CM-56 (antibody, human IgG4 S228P, lambda, V domains shown)
VH: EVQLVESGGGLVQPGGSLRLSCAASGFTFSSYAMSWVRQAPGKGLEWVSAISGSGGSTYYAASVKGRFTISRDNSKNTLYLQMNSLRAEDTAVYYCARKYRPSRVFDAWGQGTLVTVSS
VL: SYELTQPPSVSVAPGQTARITCSGDALGDKYASWYQQKPGQAPVLVIYEDAKRPSGIPERFSGSNSGNTATLTISGTQAEDEADYYCQSNDIDAVWVFGGGTKLTVLG
B17: CM-57 (antibody, human IgG4 S228P, lambda, V domains shown)
VH: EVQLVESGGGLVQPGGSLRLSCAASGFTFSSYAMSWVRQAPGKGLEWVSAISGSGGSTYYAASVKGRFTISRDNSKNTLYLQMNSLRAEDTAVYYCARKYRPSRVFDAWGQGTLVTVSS
VL: SYELTQPPSVSVAPGQTARITCSGDALGDKFASWYQQKPGQAPVLVIYEDAKRPSGIPERFSGSNSGNTATLTISGTQAEDEADYYCQSNDIDAVWVFGGGTKLTVLG
B18: CM-58 (antibody, human IgG4 S228P, lambda, V domains shown)
VH: EVQLVESGGGLVQPGGSLRLSCAASGFTFSSYAMSWVRQAPGKGLEWVSAISGSGGSTWYAASVKGRFTISRDNSKNTLYLQMNSLRAEDTAVYYCARKYRPSRVFDAWGQGTLVTVSS
VL: SYELTQPPSVSVAPGQTARITCSGDALGDKYASWYQQKPGQAPVLVIYEDAKRPSGIPERFSGSNSGNTATLTISGTQAEDEADYYCQSNDIDAVWVFGGGTKLTVLG
B19: CM-59 (antibody, human IgG4 S228P, lambda, V domains shown)
VH: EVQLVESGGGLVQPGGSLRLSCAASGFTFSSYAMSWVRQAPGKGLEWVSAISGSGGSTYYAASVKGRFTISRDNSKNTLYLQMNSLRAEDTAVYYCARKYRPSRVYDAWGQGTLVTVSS
VL: SYELTQPPSVSVAPGQTARITCSGDALGDKYASWYQQKPGQAPVLVIYEDAKRPSGIPERFSGSNSGNTATLTISGTQAEDEADYYCQSNDIDAVWVFGGGTKLTVLG
B20: CM-60 (antibody, human IgG4 S228P, lambda, V domains shown)
VH: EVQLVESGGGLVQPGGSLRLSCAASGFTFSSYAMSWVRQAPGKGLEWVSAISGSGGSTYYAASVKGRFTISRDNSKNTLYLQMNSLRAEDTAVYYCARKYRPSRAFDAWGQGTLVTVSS
VL: SYELTQPPSVSVAPGQTARITCSGDALGDKYASWYQQKPGQAPVLVIYEDAKRPSGIPERFSGSNSGNTATLTISGTQAEDEADYYCQSNDIDAVWVFGGGTKLTVLG
B21: CM-61 (antibody, human IgG4 S228P, lambda, V domains shown)
VH: EVQLVESGGGLVQPGGSLRLSCAASGFTYSSYAMSWVRQAPGKGLEWVSAISGSGGSTYYAASVKGRFTISRDNSKNTLYLQMNSLRAEDTAVYYCARKYRPSRVFDAWGQGTLVTVSS
VL: SYELTQPPSVSVAPGQTARITCSGDALGDKYASWYQQKPGQAPVLVIYQDAKRPSGIPERFSGSNSGNTATLTISGTQAEDEADYYCQSNDADAVWVFGGGTKLTVLG
B22: CM-62 (antibody, human IgG4 S228P, lambda, V domains shown)
VH: EVQLVESGGGLVQPGGSLRLSCAASGFTFSSYVMSWVRQAPGKGLEWVSAISGSGGSTYYAASVKGRFTISRDNSKNTLYLQMNSLRAEDTAVYYCARKYRPSRVFDAWGQGTLVTVSS
VL: SYELTQPPSVSVAPGQTARITCSGDALGDKYASWYQQKPGQAPVLVIYEDARRPSGIPERFSGSNSGNTATLTISGTQAEDEADYYCQSNDADAVWVFGGGTKLTVLG
B23: CM-63 (antibody, human IgG4 S228P, lambda, V domains shown)
VH: EVQLVESGGGLVQPGGSLRLSCAASGFTFSSYAMSWVRQAPGKGLEWVSAISGSGGSTWYAASVKGRFTISRDNSKNTLYLQMNSLRAEDTAVYYCARKYRPSRVFDAWGQGTLVTVSS
VL: SYELTQPPSVSVAPGQTARITCSGDALGDKYASWYQQKPGQAPVLVIYEDAKRPSGIPERFSGSNSGNTATLTISGTQAEDEADYYCQSNDVDAVWVFGGGTKLTVLG
B24: CM-64 (antibody, human IgG4 S228P, lambda, V domains shown)
VH: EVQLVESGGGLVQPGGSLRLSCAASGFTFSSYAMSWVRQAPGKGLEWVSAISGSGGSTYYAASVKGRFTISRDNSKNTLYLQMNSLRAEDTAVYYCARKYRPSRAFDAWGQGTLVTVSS
VL: SYELTQPPSVSVAPGQTARITCSGDALGDKFASWYQQKPGQAPVLVIYEDAKRPSGIPERFSGSNSGNTATLTISGTQAEDEADYYCQSNDADAVWVFGGGTKLTVLG
B25: CM-65 (antibody, human IgG4 S228P, lambda, V domains shown)
VH: EVQLVESGGGLVQPGGSLRLSCAASGFTYSSYAMSWVRQAPGKGLEWVSAISGSGGSTYYAASVKGRFTISRDNSKNTLYLQMNSLRAEDTAVYYCARKYRPSRVFDAWGQGTLVTVSS
VL: SYELTQPPSVSVAPGQTARITCSGDALGDKYASWYQQKPGQAPVLVIYQDAKRPSGIPERFSGSNSGNTATLTISGTQAEDEADYYCQSNDIDAVWVFGGGTKLTVLG
B26: CM-66 (antibody, human IgG4 S228P, lambda, V domains shown)
VH: EVQLVESGGGLVQPGGSLRLSCAASGFTYSSYAMSWVRQAPGKGLEWVSAISGSGGSTYYAASVKGRFTISRDNSKNTLYLQMNSLRAEDTAVYYCARKYRPSRAFDAWGQGTLVTVSS
VL: SYELTQPPSVSVAPGQTARITCSGDALGDKYASWYQQKPGQAPVLVIYEDAKRPSGIPERFSGSNSGNTATLTISGTQAEDEADYYCQSNDIDAVWVFGGGTKLTVLG
B27: CM-67 (antibody, human IgG4 S228P, lambda, V domains shown)
VH: EVQLVESGGGLVQPGGSLRLSCAASGFTFSSHAMSWVRQAPGKGLEWVSAISGSGGSTYYAASVKGRFTISRDNSKNTLYLQMNSLRAEDTAVYYCARKFRPSRVFDAWGQGTLVTVSS
VL: SYELTQPPSVSVAPGQTARITCSGDALGDKYASWYQQKPGQAPVLVIYEDARRPSGIPERFSGSNSGNTATLTISGTQAEDEADYYCQSNDADAVWVFGGGTKLTVLG

molecular target: T1, human S100A8/A9 heterodimeric antigen, …; assay: cell-based or functional assay

Binder	Relative IC50 (IC50 relative to CM-1), IL-6 release from hS100A8/A9-activated human PBMCs
B1	0.679 relative to CM-1
B2	2.18 relative to CM-1
B3	1.11 relative to CM-1
B4	0.866 relative to CM-1
B5	1.99 relative to CM-1
B6	1.44 relative to CM-1
B7	2.09 relative to CM-1
B8	1.51 relative to CM-1
B9	2.12 relative to CM-1
B10	1.58 relative to CM-1
B11	0.617 relative to CM-1
B12	1.19 relative to CM-1
B13	0.357 relative to CM-1
B14	0.997 relative to CM-1
B15	1.67 relative to CM-1
B16	1.12 relative to CM-1
B17	1.16 relative to CM-1
B18	1.52 relative to CM-1
B19	1.04 relative to CM-1
B20	0.936 relative to CM-1
B21	0.923 relative to CM-1
B22	1.58 relative to CM-1
B23	1.33 relative to CM-1
B24	0.5 relative to CM-1
B25	0.618 relative to CM-1
B26	0.694 relative to CM-1
B27	0.548 relative to CM-1

Source: patent publication US20260184777A1 (BEIJING SUNGEN BIOMEDICAL TECHNOLOGY, published 2026)
